B1: Proliferation-associated protein 2G4 (Homo sapiens), Q9UQ80 (parent)
chain: MSGEDEQQEQTIAEDLVVTKYKMGGDIANRVLRSLVEASSSGVSVLSLCEKGDAMIMEETGKIFKKEKEMKKGIAFPTSISVNNCVCHFSPLKSDQDYILKEGDLVKIDLGVHVDGFIANVAHTFVVDVAQGTQVTGRKADVIKAAHLCAEAALRLVKPGNQNTQVTEAWNKVAHSFNCTPIEGMLSHQLKQHVIDGEKTIIQNPTDQQKKDHEKAEFEVHEVYAVDVLVSSGEGKAKDAGQRTTIYKRDPSKQYGLKMKTSRAFFSEVERRFDAMPFTLRAFEDEKKARMGVVECAKHELLQPFNVLYEKEGEFVAQFKFTVLLMPNGPMRITSGPFEPDLYKSEMEVQDAELKALLQSSASRKTQKKKKKKASKTAENATSGETLEENEAGD
partner: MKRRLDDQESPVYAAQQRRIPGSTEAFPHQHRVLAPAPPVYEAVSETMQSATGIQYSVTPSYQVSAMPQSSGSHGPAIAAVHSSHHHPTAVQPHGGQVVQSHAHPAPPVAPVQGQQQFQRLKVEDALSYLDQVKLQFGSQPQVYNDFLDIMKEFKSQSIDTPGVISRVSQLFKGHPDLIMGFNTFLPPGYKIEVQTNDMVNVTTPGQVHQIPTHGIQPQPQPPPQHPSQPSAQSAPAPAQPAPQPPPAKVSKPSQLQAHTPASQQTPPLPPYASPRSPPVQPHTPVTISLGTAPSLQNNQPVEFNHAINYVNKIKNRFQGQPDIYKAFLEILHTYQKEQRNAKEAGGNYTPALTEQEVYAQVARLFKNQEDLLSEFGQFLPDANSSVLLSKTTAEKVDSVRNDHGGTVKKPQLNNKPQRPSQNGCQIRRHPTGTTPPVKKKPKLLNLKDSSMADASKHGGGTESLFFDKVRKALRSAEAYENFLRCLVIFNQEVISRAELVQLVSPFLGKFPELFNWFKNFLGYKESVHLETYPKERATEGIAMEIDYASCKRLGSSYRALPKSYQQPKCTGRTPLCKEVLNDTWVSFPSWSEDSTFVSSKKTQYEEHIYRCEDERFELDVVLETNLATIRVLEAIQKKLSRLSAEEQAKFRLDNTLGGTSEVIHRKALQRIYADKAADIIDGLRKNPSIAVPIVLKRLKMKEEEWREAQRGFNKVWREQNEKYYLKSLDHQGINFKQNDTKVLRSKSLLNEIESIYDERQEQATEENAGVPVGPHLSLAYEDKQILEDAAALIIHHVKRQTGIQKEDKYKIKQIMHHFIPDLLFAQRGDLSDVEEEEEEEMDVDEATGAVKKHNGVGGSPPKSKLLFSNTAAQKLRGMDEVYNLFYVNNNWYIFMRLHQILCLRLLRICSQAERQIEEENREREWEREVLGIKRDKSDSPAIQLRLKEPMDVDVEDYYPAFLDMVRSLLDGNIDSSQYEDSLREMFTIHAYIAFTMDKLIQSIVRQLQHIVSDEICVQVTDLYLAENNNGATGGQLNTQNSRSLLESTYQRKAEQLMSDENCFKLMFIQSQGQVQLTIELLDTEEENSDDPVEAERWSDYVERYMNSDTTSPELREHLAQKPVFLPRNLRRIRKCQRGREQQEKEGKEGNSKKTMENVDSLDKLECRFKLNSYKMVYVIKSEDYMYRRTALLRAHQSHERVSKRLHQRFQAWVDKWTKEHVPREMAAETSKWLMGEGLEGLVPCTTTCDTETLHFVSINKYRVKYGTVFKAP

Variants of: B1
Details: with sin3a_human SIN3A

effect of a mutation on the interaction | Variant
disrupting interaction | L357A;L358A

From IntAct's records for PubMed 16254079
